Results: paper PMC7596504 (2020)

Target: T1, MORC4 ATPaseCW cassette (aa 29-486) (human, UniProt Q8TE76 29-486)
T1 chain: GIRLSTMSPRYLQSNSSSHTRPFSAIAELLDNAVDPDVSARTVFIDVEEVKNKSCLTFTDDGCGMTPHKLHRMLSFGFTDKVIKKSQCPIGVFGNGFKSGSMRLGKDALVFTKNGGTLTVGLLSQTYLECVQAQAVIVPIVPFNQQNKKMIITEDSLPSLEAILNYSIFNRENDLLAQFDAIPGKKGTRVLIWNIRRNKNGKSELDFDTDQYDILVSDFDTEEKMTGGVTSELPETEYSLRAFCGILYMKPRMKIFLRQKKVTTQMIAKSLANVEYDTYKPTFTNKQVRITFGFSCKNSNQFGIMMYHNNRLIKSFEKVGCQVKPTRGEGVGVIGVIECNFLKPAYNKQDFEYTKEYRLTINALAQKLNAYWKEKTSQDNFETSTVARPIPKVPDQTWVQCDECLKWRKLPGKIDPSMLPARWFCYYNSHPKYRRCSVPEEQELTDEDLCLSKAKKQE

Kd: 12 µM
Binder: ARTKQTARKSTG [unmodified histone H3 peptide (aa 1-12 of H3)]
